# In paper PMC12416549 (2024):
# T1: TNFR1 (Homo sapiens, UniProt P19438)
# T1 chain: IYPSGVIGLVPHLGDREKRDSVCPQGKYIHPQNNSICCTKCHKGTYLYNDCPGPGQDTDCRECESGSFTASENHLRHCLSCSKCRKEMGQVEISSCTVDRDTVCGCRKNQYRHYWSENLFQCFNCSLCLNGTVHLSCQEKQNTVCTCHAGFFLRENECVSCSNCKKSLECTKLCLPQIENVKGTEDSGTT
# Target: T1, TNFR1
# Assay: yeast display SC50
row,Binder,apparent Kd (screen)
1,L12A (designed binder) MTLQELLREEAARRAEAEAFRYALELLAEKFPEQKEYLLDLAEEIESQIRSLSGVDVEDVRKFLDKEWAWVKELLAEHPAELAEVEAARAARLAELRAEVEAKVAA,0.79 nM
2,A87R (designed binder) MTLQELLREEALRRAEAEAFRYALELLAEKFPEQKEYLLDLAEEIESQIRSLSGVDVEDVRKFLDKEWAWVKELLAEHPAELAEVERARAARLAELRAEVEAKVAA,0.446 nM
3,L82D (designed binder) MTLQELLREEALRRAEAEAFRYALELLAEKFPEQKEYLLDLAEEIESQIRSLSGVDVEDVRKFLDKEWAWVKELLAEHPAEDAEVEAARAARLAELRAEVEAKVAA,5.84 nM
4,V55C (designed binder) MTLQELLREEALRRAEAEAFRYALELLAEKFPEQKEYLLDLAEEIESQIRSLSGCDVEDVRKFLDKEWAWVKELLAEHPAELAEVEAARAARLAELRAEVEAKVAA,0.79 nM
5,E33K (designed binder) MTLQELLREEALRRAEAEAFRYALELLAEKFPKQKEYLLDLAEEIESQIRSLSGVDVEDVRKFLDKEWAWVKELLAEHPAELAEVEAARAARLAELRAEVEAKVAA,1.05 nM
6,Y37F (designed binder) MTLQELLREEALRRAEAEAFRYALELLAEKFPEQKEFLLDLAEEIESQIRSLSGVDVEDVRKFLDKEWAWVKELLAEHPAELAEVEAARAARLAELRAEVEAKVAA,2.48 nM
7,L52I (designed binder) MTLQELLREEALRRAEAEAFRYALELLAEKFPEQKEYLLDLAEEIESQIRSISGVDVEDVRKFLDKEWAWVKELLAEHPAELAEVEAARAARLAELRAEVEAKVAA,0.539 nM
8,R14T (designed binder) MTLQELLREEALRTAEAEAFRYALELLAEKFPEQKEYLLDLAEEIESQIRSLSGVDVEDVRKFLDKEWAWVKELLAEHPAELAEVEAARAARLAELRAEVEAKVAA,0.49 nM
9,E81Y (designed binder) MTLQELLREEALRRAEAEAFRYALELLAEKFPEQKEYLLDLAEEIESQIRSLSGVDVEDVRKFLDKEWAWVKELLAEHPAYLAEVEAARAARLAELRAEVEAKVAA,0.446 nM
10,A83E (designed binder) MTLQELLREEALRRAEAEAFRYALELLAEKFPEQKEYLLDLAEEIESQIRSLSGVDVEDVRKFLDKEWAWVKELLAEHPAELEEVEAARAARLAELRAEVEAKVAA,0.593 nM
11,A105R (designed binder) MTLQELLREEALRRAEAEAFRYALELLAEKFPEQKEYLLDLAEEIESQIRSLSGVDVEDVRKFLDKEWAWVKELLAEHPAELAEVEAARAARLAELRAEVEAKVRA,0.718 nM
12,K35Q (designed binder) MTLQELLREEALRRAEAEAFRYALELLAEKFPEQQEYLLDLAEEIESQIRSLSGVDVEDVRKFLDKEWAWVKELLAEHPAELAEVEAARAARLAELRAEVEAKVAA,0.718 nM
13,A15K (designed binder) MTLQELLREEALRRKEAEAFRYALELLAEKFPEQKEYLLDLAEEIESQIRSLSGVDVEDVRKFLDKEWAWVKELLAEHPAELAEVEAARAARLAELRAEVEAKVAA,0.49 nM
14,A17P (designed binder) MTLQELLREEALRRAEPEAFRYALELLAEKFPEQKEYLLDLAEEIESQIRSLSGVDVEDVRKFLDKEWAWVKELLAEHPAELAEVEAARAARLAELRAEVEAKVAA,0.718 nM
15,G54N (designed binder) MTLQELLREEALRRAEAEAFRYALELLAEKFPEQKEYLLDLAEEIESQIRSLSNVDVEDVRKFLDKEWAWVKELLAEHPAELAEVEAARAARLAELRAEVEAKVAA,1.4 nM
16,L74E (designed binder) MTLQELLREEALRRAEAEAFRYALELLAEKFPEQKEYLLDLAEEIESQIRSLSGVDVEDVRKFLDKEWAWVKEELAEHPAELAEVEAARAARLAELRAEVEAKVAA,2.48 nM
17,S53D (designed binder) MTLQELLREEALRRAEAEAFRYALELLAEKFPEQKEYLLDLAEEIESQIRSLDGVDVEDVRKFLDKEWAWVKELLAEHPAELAEVEAARAARLAELRAEVEAKVAA,8.56 nM
18,E58V (designed binder) MTLQELLREEALRRAEAEAFRYALELLAEKFPEQKEYLLDLAEEIESQIRSLSGVDVVDVRKFLDKEWAWVKELLAEHPAELAEVEAARAARLAELRAEVEAKVAA,0.49 nM

row,Binder,apparent Kd (screen)
1,R61C (designed binder) MTLQELLREEALRRAEAEAFRYALELLAEKFPEQKEYLLDLAEEIESQIRSLSGVDVEDVCKFLDKEWAWVKELLAEHPAELAEVEAARAARLAELRAEVEAKVAA,0.956 nM
2,E44L (designed binder) MTLQELLREEALRRAEAEAFRYALELLAEKFPEQKEYLLDLAELIESQIRSLSGVDVEDVRKFLDKEWAWVKELLAEHPAELAEVEAARAARLAELRAEVEAKVAA,13.8 nM
3,Y22I (designed binder) MTLQELLREEALRRAEAEAFRIALELLAEKFPEQKEYLLDLAEEIESQIRSLSGVDVEDVRKFLDKEWAWVKELLAEHPAELAEVEAARAARLAELRAEVEAKVAA,0.956 nM
4,R89L (designed binder) MTLQELLREEALRRAEAEAFRYALELLAEKFPEQKEYLLDLAEEIESQIRSLSGVDVEDVRKFLDKEWAWVKELLAEHPAELAEVEAALAARLAELRAEVEAKVAA,0.79 nM
5,E86M (designed binder) MTLQELLREEALRRAEAEAFRYALELLAEKFPEQKEYLLDLAEEIESQIRSLSGVDVEDVRKFLDKEWAWVKELLAEHPAELAEVMAARAARLAELRAEVEAKVAA,0.79 nM
6,A90K (designed binder) MTLQELLREEALRRAEAEAFRYALELLAEKFPEQKEYLLDLAEEIESQIRSLSGVDVEDVRKFLDKEWAWVKELLAEHPAELAEVEAARKARLAELRAEVEAKVAA,0.446 nM
7,E5M (designed binder) MTLQMLLREEALRRAEAEAFRYALELLAEKFPEQKEYLLDLAEEIESQIRSLSGVDVEDVRKFLDKEWAWVKELLAEHPAELAEVEAARAARLAELRAEVEAKVAA,0.593 nM
8,K66M (designed binder) MTLQELLREEALRRAEAEAFRYALELLAEKFPEQKEYLLDLAEEIESQIRSLSGVDVEDVRKFLDMEWAWVKELLAEHPAELAEVEAARAARLAELRAEVEAKVAA,0.593 nM
9,G54K (designed binder) MTLQELLREEALRRAEAEAFRYALELLAEKFPEQKEYLLDLAEEIESQIRSLSKVDVEDVRKFLDKEWAWVKELLAEHPAELAEVEAARAARLAELRAEVEAKVAA,12.5 nM
10,A94I (designed binder) MTLQELLREEALRRAEAEAFRYALELLAEKFPEQKEYLLDLAEEIESQIRSLSGVDVEDVRKFLDKEWAWVKELLAEHPAELAEVEAARAARLIELRAEVEAKVAA,0.956 nM
11,Q34E (designed binder) MTLQELLREEALRRAEAEAFRYALELLAEKFPEEKEYLLDLAEEIESQIRSLSGVDVEDVRKFLDKEWAWVKELLAEHPAELAEVEAARAARLAELRAEVEAKVAA,0.653 nM
12,L3H (designed binder) MTHQELLREEALRRAEAEAFRYALELLAEKFPEQKEYLLDLAEEIESQIRSLSGVDVEDVRKFLDKEWAWVKELLAEHPAELAEVEAARAARLAELRAEVEAKVAA,2.25 nM
13,E67C (designed binder) MTLQELLREEALRRAEAEAFRYALELLAEKFPEQKEYLLDLAEEIESQIRSLSGVDVEDVRKFLDKCWAWVKELLAEHPAELAEVEAARAARLAELRAEVEAKVAA,5.84 nM
14,E33Y (designed binder) MTLQELLREEALRRAEAEAFRYALELLAEKFPYQKEYLLDLAEEIESQIRSLSGVDVEDVRKFLDKEWAWVKELLAEHPAELAEVEAARAARLAELRAEVEAKVAA,0.539 nM
15,H78W (designed binder) MTLQELLREEALRRAEAEAFRYALELLAEKFPEQKEYLLDLAEEIESQIRSLSGVDVEDVRKFLDKEWAWVKELLAEWPAELAEVEAARAARLAELRAEVEAKVAA,0.446 nM
16,A80N (designed binder) MTLQELLREEALRRAEAEAFRYALELLAEKFPEQKEYLLDLAEEIESQIRSLSGVDVEDVRKFLDKEWAWVKELLAEHPNELAEVEAARAARLAELRAEVEAKVAA,1.27 nM
17,Q48I (designed binder) MTLQELLREEALRRAEAEAFRYALELLAEKFPEQKEYLLDLAEEIESIIRSLSGVDVEDVRKFLDKEWAWVKELLAEHPAELAEVEAARAARLAELRAEVEAKVAA,5.84 nM
